Laboratory results from patent publication US20210214440A1.

Target: CD3 (UniProt P07766)
Test: method and format not stated

- Kd: 80 nM
B1: CD3B450 (antibody, V domains shown)
VH: QVQLQQSGPGLVKPSQTLSLTCAISGDSVFNNNAAWSWIRQSPSRGLEWLGRTYYRSKWLYDYAVSVKSRITINPDTSKNQFSLQLNSVTPEDTAVYYCARGYSSSFDYWGQGTLVTVSS
VL: QSALTQPASVSGSPGQSITISCTGTSSNIGTYKFVSWYQQHPGKAPKVMIYEVSKRPSGVSNRFSGSKSGNTASLTISGLQAEDEADYYCVSYAGSGTLLFGGGTKLTVL
